Results reported in US20160250313A1 (GlaxoSmithKline, published 2016).

Target: T1, Vitronectin from human plasma, SIGMA-ALDRICH (human, UniProt P04004 20-478)
T1 construct: mature
Assay: ELISA, fusion protein coated at 10 ug/ml, vitronectin from 10 ug/ml in two-fold dilutions, detected with peroxidase sheep anti-human vitronectin

T1 sequence (P04004 20-478): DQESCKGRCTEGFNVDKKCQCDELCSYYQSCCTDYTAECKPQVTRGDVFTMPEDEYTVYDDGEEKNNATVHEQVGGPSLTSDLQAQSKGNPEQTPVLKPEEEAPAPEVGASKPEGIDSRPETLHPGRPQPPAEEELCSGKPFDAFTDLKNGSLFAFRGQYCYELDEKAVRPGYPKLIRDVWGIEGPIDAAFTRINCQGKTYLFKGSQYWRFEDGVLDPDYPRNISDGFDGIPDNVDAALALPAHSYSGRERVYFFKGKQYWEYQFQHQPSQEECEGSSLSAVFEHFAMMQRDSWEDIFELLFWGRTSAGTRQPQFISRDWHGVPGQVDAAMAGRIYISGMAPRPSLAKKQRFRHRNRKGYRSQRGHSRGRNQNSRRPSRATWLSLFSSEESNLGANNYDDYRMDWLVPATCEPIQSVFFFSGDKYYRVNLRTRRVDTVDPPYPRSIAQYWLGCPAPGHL

B1: purified LVL317 PE-PilA fusion protein (other)
chain: QIQKAEQNDVKLAPPTDVRSGYIRLVKNVNYYIDSESIWVDNQEPQIVHFDAVVNLDKGLYVYPEPKRYARSVRQYKILNCANYHLTQVRTDFYDEFWGQGLRAAPKKQKKHTLSLTPDTTLYNAAQIICANYGEAFSVDKKGGTKKAAVSELLQASAPYKADVELCVYSTNETTNCTGGKNGIAADITTAKGYVKSVTTSNGAITVKGDGTLANMEYILQATGNAATGVTWTTTCKGTDASLFPANFCGSVTQ
notes: Coated on microtiter plates at 10 ug/ml; also called PE-PilA fusion non His-tagged protein
B1: binds.
